One protein from article PMC13345917, “EasyGrid: a versatile platform for automated cryo-EM sample preparation and quality control” (Nature Methods, 2026) can be followed below.

What is called stoichiometry N is the number of molecules, sites or subunits per partner or assembly.

This data set concerns the molecule itself. Description: cryo-EM structure; single-particle analysis of KR2 rhodopsin in 50 mM Tris-HCl pH 8.0, 0.1 M NaCl, 0.03% DDM; grids made with EasyGrid at 4 °C; non-symmetrised ab initio model, then refinement with imposed C5 symmetry.

B1: KR2 rhodopsin (NaR gene from Krokinobacter eikastus) (natural protein)
chain: MTQELGNANFENFIGATEGFSEIAYQFTSHILTLGYAVMLAGLLYFILTIKNVDKKFQMSNILSAVVMVSAFLLLYAQAQNWTSSFTFNEEVGRYFLDPSGDLFNNGYRYLNWLIDVPMLLFQILFVVSLTTSKFSSVRNQFWFSGAMMIITGYIGQFYEVSNLTAFLVWGAISSAFFFHILWVMKKVINEGKEGISPAGQKILSNIWILFLISWTLYPGAYLMPYLTGVDGFLYSEDGVMARQLVYTIADVSSKVIYGVLLGNLAITLSKNKELVEANS
notes: KR2 rhodopsin, NaR gene from Krokinobacter eikastus, codon-optimised for E. coli; also called KR2 bacterial rhodopsin; source: E. coli C41, pET15b, purified in DDM (Ni-NTA, Superdex 200 Increase)
As to B1, the “stoichiometry N” value amounted to 5.
